Measured values as given in the supplement of paper PMC12458215.
± gives the uncertainty stated by the source.

test system: HEK293T; test: plasma membrane surface immunostaining intensity (anti-HA, deep receptor scanning) (arbitrary fluorescence units); higher = higher plasma membrane expression; settings: GPCR class: A

Q: “MSANATLKPLCPILEQMSRLQSHSNTSIRYIDHAAVLLHGLASLLGLVENGVILFVVGCRMRQTVVTTWVLHLALSDLLASASLPFFTYFLAVGHSWELGTTFCKLHSSIFFLNMFASGFLLSAISLDRCLQVVRPVWAQNHRTVAAAHKVCLVLWALAVLNTVPYFVFRDTISRLDGRIMCYYNVLLLNPGPDRDATCNSRQVALAVSKFLLAFLVPLAIIASSHAAVSLRLQHRGRRRPGRFVRLVAAVVAAFALCWGPYHVFSLLEARAHANPGLRPLVWRGLPFVTSLAFFNSVANPVLYVLTCPDMLRKLRRSLRTVLESVLVDDSELGGAGSSRRRRTSSTARSASPLALCSRPEEPRGPARLLGWLLGSCAASPQTGPLNRALSSTSS [PTGDR2]” was tested. Which “plasma membrane surface immunostaining intensity” value did it give?
A: The value was 6413 ± 49.

Q: How did the “plasma membrane surface immunostaining intensity” value turn out when “MNPDLDTGHNTSAPAHWGELKNANFTGPNQTSSNSTLPQLDITRAISVGLVLGAFILFAIVGNILVILSVACNRHLRTPTNYFIVNLAMADLLLSFTVLPFSAALEVLGYWVLGRIFCDIWAAVDVLCCTASILSLCAISIDRYIGVRYSLQYPTLVTRRKAILALLSVWVLSTVISIGPLLGWKEPAPNDDKECGVTEEPFYALFSSLGSFYIPLAVILVMYCRVYIVAKRTTKNLEAGVMKEMSNSKELTLRIHSKNFHEDTLSSTKAKGHNPRSSIAVKLFKFSREKKAAKTLGIVVGMFILCWLPFFIALPLGSLFSTLKPPDAVFKVVFWLGYFNSCLNPIIYPCSSKEFKRAFVRILGCQCRGRGRRRRRRRRRLGGCAYTYRPWTRGGSLERSQSRKDSLDDSGSCLSGSQRTLPSASPSPGYLGRGAPPPVELCAFPEWKAPGALLSLPAPEPPGRRGRHDSGPLFTFKLLTEPESPGTDGGASNGGCEAAADVANGQPGFKSNMPLAPGQF [ADRA1B]” was run?
A: The value was 6200 ± 240.

Q: “MELLKLNRSVQGTGPGPGASLCRPGAPLLNSSSVGNLSCEPPRIRGAGTRELELAIRITLYAVIFLMSVGGNMLIIVVLGLSRRLRTVTNAFLLSLAVSDLLLAVACMPFTLLPNLMGTFIFGTVICKAVSYLMGVSVSVSTLSLVAIALERYSAICRPLQARVWQTRSHAARVIVATWLLSGLLMVPYPVYTVVQPVGPRVLQCVHRWPSARVRQTWSVLLLLLLFFIPGVVMAVAYGLISRELYLGLRFDGDSDSDSQSRVRNQGGLPGAVHQNGRCRPETGAVGEDSDGCYVQLPRSRPALELTALTAPGPGSGSRPTQAKLLAKKRVVRMLLVIVVLFFLCWLPVYSANTWRAFDGPGAHRALSGAPISFIHLLSYASACVNPLVYCFMHRRFRQACLETCARCCPRPPRARPRALPDEDPPTPSIASLSRLSYTTISTLGPG [CCKBR]” was tested. Which “plasma membrane surface immunostaining intensity” value did it give?
A: Its value is 2920 ± 830.

Q: With “MALLLVSLLAFLSLGSGCHHRICHCSNRVFLCQESKVTEIPSDLPRNAIELRFVLTKLRVIQKGAFSGFGDLEKIEISQNDVLEVIEADVFSNLPKLHEIRIEKANNLLYINPEAFQNLPNLQYLLISNTGIKHLPDVHKIHSLQKVLLDIQDNINIHTIERNSFVGLSFESVILWLNKNGIQEIHNCAFNGTQLDELNLSDNNNLEELPNDVFHGASGPVILDISRTRIHSLPSYGLENLKKLRARSTYNLKKLPTLEKLVALMEASLTYPSHCCAFANWRRQISELHPICNKSILRQEVDYMTQARGQRSSLAEDNESSYSRGFDMTYTEFDYDLCNEVVDVTCSPKPDAFNPCEDIMGYNILRVLIWFISILAITGNIIVLVILTTSQYKLTVPRFLMCNLAFADLCIGIYLLLIASVDIHTKSQYHNYAIDWQTGAGCDAAGFFTVFASELSVYTLTAITLERWHTITHAMQLDCKVQLRHAASVMVMGWIFAFAAALFPIFGISSYMKVSICLPMDIDSPLSQLYVMSLLVLNVLAFVVICGCYIHIYLTVRNPNIVSSSSDTRIAKRMAMLIFTDFLCMAPISFFAISASLKVPLITVSKAKILLVLFHPINSCANPFLYAIFTKNFRRDFFILLSKCGCYEMQAQIYRTETSSTVHNTHPRNGHCSSAPRVTSGSTYILVPLSHLAQN [FSHR]” as the sequence, how does the “plasma membrane surface immunostaining intensity” value read?
A: Its value is 378 ± 44.

same assay, conditions: GPCR class: A (Olfactory)

Q: With “MMIKKNASSEDFFILLGFSNWPQLEVVLFVVILIFYLMTLTGNLFIIILSYVDSHLHTPMYFFLSNLSFLDLCHTTSSIPQLLVNLRGPEKTISYAGCMVQLYFVLALGIAECVLLVVMSYDRYVAVCRPLHYTVLMHPRFCHLLAAASWVIGFTISALHSSFTFWVPLCGHRLVDHFFCEVPALLRLSCVDTHANELTLMVMSSIFVLIPLILILTAYGAIARAVLSMQSTTGLQKVFRTCGAHLMVVSLFFIPVMCMYLQPPSENSPDQGKFIALFYTVVTPSLNPLIYTLRNKHVKGAAKRLLGWEWGK [OR2J2]” as the sequence, how does the “plasma membrane surface immunostaining intensity” value read?
A: Its value is 82.9 ± 16.

Q: “MSITKAWNSSSVTMFILLGFTDHPELQALLFVTFLGIYLTTLAWNLALIFLIRGDTHLHTPMYFFLSNLSFIDICYSSAVAPNMLTDFFWEQKTISFVGCAAQFFFFVGMGLSECLLLTAMAYDRYAAISSPLLYPTIMTQGLCTRMVVGAYVGGFLSSLIQASSIFRLHFCGPNIINHFFCDLPPVLALSCSDTFLSQVVNFLVVVTVGGTSFLQLLISYGYIVSAVLKIPSAEGRWKACNTCASHLMVVTLLFGTALFVYLRPSSSYLLGRDKVVSVFYSLVIPMLNPLIYSLRNKEIKDALWKVLERKKVFS [OR5A1]” was tested. Which “plasma membrane surface immunostaining intensity” value did it give?
A: Its value is 122 ± 20.

Q: With “MDKINQTFVREFILLGLSGYPKLEIIFFALILVMYVVILIGNGVLIIASILDSRLHMPMYFFLGNLSFLDICYTTSSIPSTLVSLISKKRNISFSGCAVQMFFGFAMGSTECFLLGMMAFDRYVAICNPLRYPIIMNKVVYVLLTSVSWLSGGINSTVQTSLAMRWPFCGNNIINHFLCEILAVLKLACSDISVNIVTLAVSNIAFLVLPLLVIFFSYMFILYTILRTNSATGRHKAFSTCSAHLTVVIIFYGTIFFMYAKPKSQDLLGKDNLQATEGLVSMFYGVVTPMLNPIIYSLRNKDVKAAIKYLLSRKAINQ [OR13C4]” as the sequence, how does the “plasma membrane surface immunostaining intensity” value read?
A: The value was 311 ± 110.

Q: “MARENHSLAAEFILIGFTNYPELKTLLFVVFSAIYLVTMVGNLGLVALIYVERRLLTPMYIFLGNLALMDSCCSCAVTPKMLENFFSEDRIISLYECMAQFYFLCLAETTDCFLLATMAYDRYVAICHPLQYHTMMSKTLCIRMTTGAFKAGNLHSMIHVGLLLRLTFCRSNKIHHFFCDILPLYRLSCTDPSINELMIYIFSIPIQIFTIATVLISYLCILLTVFKMKSKEGRGKAFSTCASHFLSVSIFYICLLMYIGPSEEGDKDTPVAIFYAIVIPLLNPFIYSLRNKEVINVLKKIMRNYNILKQTCSIANLFLIY [OR5K4]” was tested. Which “plasma membrane surface immunostaining intensity” value did it give?
A: Its value is 254 ± 110.

Q: For “METQNLTVVTEFILLGLTQSQDAQLLVFVLVLIFYLIILPGNFLIIFTIKSDPGLTAPLYFFLGNLALLDASYSFIVVPRMLVDFLSEKKVISYRSCITQLFFLHFLGAGEMFLLVVMAFDRYIAICRPLHYSTIMNPRACYALSLVLWLGGFIHSIVQVALILHLPFCGPNQLDNFFCDVPQVIKLACTNTFVVELLMVSNSGLLSLLCFLGLLASYAVILCRIREHSSEGKSKAISTCTTHIIIIFLMFGPAIFIYTCPFQAFPADKVVSLFHTVIFPLMNPVIYTLRNQEVKASMRKLLSQHMFC [OR4N5]”, which “plasma membrane surface immunostaining intensity” value is on record?
A: Its value is 216 ± 66.

same assay, conditions: GPCR class: B

Q: How did the “plasma membrane surface immunostaining intensity” value turn out when “MGGRVFLAFCVWLTLPGAETQDSRGCARWCPQNSSCVNATACRCNPGFSSFSEIITTPTETCDDINECATPSKVSCGKFSDCWNTEGSYDCVCSPGYEPVSGAKTFKNESENTCQDVDECQQNPRLCKSYGTCVNTLGSYTCQCLPGFKFIPEDPKVCTDVNECTSGQNPCHSSTHCLNNVGSYQCRCRPGWQPIPGSPNGPNNTVCEDVDECSSGQHQCDSSTVCFNTVGSYSCRCRPGWKPRHGIPNNQKDTVCEDMTFSTWTPPPGVHSQTLSRFFDKVQDLGRDSKTSSAEVTIQNVIKLVDELMEAPGDVEALAPPVRHLIATQLLSNLEDIMRILAKSLPKGPFTYISPSNTELTLMIQERGDKNVTMGQSSARMKLNWAVAAGAEDPGPAVAGILSIQNMTTLLANASLNLHSKKQAELEEIYESSIRGVQLRRLSAVNSIFLSHNNTKELNSPILFAFSHLESSDGEAGRDPPAKDVMPGPRQELLCAFWKSDSDRGGHWATEGCQVLGSKNGSTTCQCSHLSSFAILMAHYDVEDWKLTLITRVGLALSLFCLLLCILTFLLVRPIQGSRTTIHLHLCICLFVGSTIFLAGIENEGGQVGLRCRLVAGLLHYCFLAAFCWMSLEGLELYFLVVRVFQGQGLSTRWLCLIGYGVPLLIVGVSAAIYSKGYGRPRYCWLDFEQGFLWSFLGPVTFIILCNAVIFVTTVWKLTQKFSEINPDMKKLKKARALTITAIAQLFLLGCTWVFGLFIFDDRSLVLTYVFTILNCLQGAFLYLLHCLLNKKVREEYRKWACLVAGGSKYSEFTSTTSGTGHNQTRALRASESGI [ADGRE5]” was run?
A: The value was 6420 ± 110.

Q: Which “plasma membrane surface immunostaining intensity” value does the source give for “MRGFNLLLFWGCCVMHSWEGHIRPTRKPNTKGNNCRDSTLCPAYATCTNTVDSYYCACKQGFLSSNGQNHFKDPGVRCKDIDECSQSPQPCGPNSSCKNLSGRYKCSCLDGFSSPTGNDWVPGKPGNFSCTDINECLTSSVCPEHSDCVNSMGSYSCSCQVGFISRNSTCEDVDECADPRACPEHATCNNTVGNYSCFCNPGFESSSGHLSFQGLKASCEDIDECTEMCPINSTCTNTPGSYFCTCHPGFAPSNGQLNFTDQGVECRDIDECRQDPSTCGPNSICTNALGSYSCGCIAGFHPNPEGSQKDGNFSCQRVLFKCKEDVIPDNKQIQQCQEGTAVKPAYVSFCAQINNIFSVLDKVCENKTTVVSLKNTTESFVPVLKQISTWTKFTKEETSSLATVFLESVESMTLASFWKPSANITPAVRTEYLDIESKVINKECSEENVTLDLVAKGDKMKIGCSTIEESESTETTGVAFVSFVGMESVLNERFFKDHQAPLTTSEIKLKMNSRVVGGIMTGEKKDGFSDPIIYTLENIQPKQKFERPICVSWSTDVKGGRWTSFGCVILEASETYTICSCNQMANLAVIMASGELTMDFSLYIISHVGIIISLVCLVLAIATFLLCRSIRNHNTYLHLHLCVCLLLAKTLFLAGIHKTDNKMGCAIIAGFLHYLFLACFFWMLVEAVILFLMVRNLKVVNYFSSRNIKMLHICAFGYGLPMLVVVISASVQPQGYGMHNRCWLNTETGFIWSFLGPVCTVIVINSLLLTWTLWILRQRLSSVNAEVSTLKDTRLLTFKAFAQLFILGCSWVLGIFQIGPVAGVMAYLFTIINSLQGAFIFLIHCLLNGQVREEYKRWITGKTKPSSQSQTSRILLSSMPSASKTG [ADGRE1]” here?
A: The value was 948 ± 160.

same assay, conditions: GPCR class: Taste

Q: With “MLTLTRIRTVSYEVRSTFLFISVLEFAVGFLTNAFVFLVNFWDVVKRQALSNSDCVLLCLSISRLFLHGLLFLSAIQLTHFQKLSEPLNHSYQAIIMLWMIANQANLWLAACLSLLYCSKLIRFSHTFLICLASWVSRKISQMLLGIILCSCICTVLCVWCFFSRPHFTVTTVLFMNNNTRLNWQIKDLNLFYSFLFCYLWSVPPFLLFLVSSGMLTVSLGRHMRTMKVYTRNSRDPSLEAHIKALKSLVSFFCFFVISSCAAFISVPLLILWRDKIGVMVCVGIMAACPSGHAAILISGNAKLRRAVMTILLWAQSSLKVRADHKADSRTLC [TAS2R38]” as the sequence, how does the “plasma membrane surface immunostaining intensity” value read?
A: Its value is 123 ± 18.

Q: With “MMCFLLIISSILVVFAFVLGNVANGFIALVNVIDWVNTRKISSAEQILTALVVSRIGLLWVMLFLWYATVFNSALYGLEVRIVASNAWAVTNHFSMWLAASLSIFCLLKIANFSNLISLHLKKRIKSVVLVILLGPLVFLICNLAVITMDERVWTKEYEGNVTWKIKLRNAIHLSSLTVTTLANLIPFTLSLICFLLLICSLCKHLKKMRLHSKGSQDPSTKVHIKALQTVTSFLMLFAIYFLCIITSTWNLRTQQSKLVLLLCQTVAIMYPSFHSFILIMGSRKLKQTFLSVLWQMTR [TAS2R19]” as the sequence, how does the “plasma membrane surface immunostaining intensity” value read?
A: Its value is 370 ± 230.
